From the supplement of paper PMC10219994
± gives the standard deviation of the averaged measurements.

B1: library; a variant is named by its letters at N, in order (parent)
chain: GAGACCGCAACTGAAAAGTTGTGGNNNNNATAGTGAGTCGCTGCCTGCAAAGACACAACT

Variants of: B1
Experiment: ligation selection enrichment (abundance after / before one-round selection) (fold); higher = more template-directed ligation activity
Conditions: with T7Psub CACGGAUGCUAAUACGACUCACUAUA; MgCl2 25 mM; 42 °C; 4 h; pH 8.5
Method in brief: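 In each of two independent experiments, 6 μM RNA substrate was reacted for 4 h at 42 °C with 0.75 μM of a T7-transcribed RNA ligase library randomized at five core positions, in buffer containing 50 mM EPPS pH 8.5 and 25 mM MgCl2. Only reads scoring ≥30 in quality at all randomized positions were counted after MiSeq sequencing. Each enrichment value is the ratio of abundance after ligation to abundance before ligation.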

Variant | ligation selection enrichment
ATCTG | 0.796 ± 0.041
CATGT | 0.109 ± 0.064
CATGG | 0.226 ± 0.027
GATGG | 0.46 ± 0.1
ACAAA | 0.227 ± 0.0041
ACAAG | 0.442 ± 0.0085
CAGAG | 0.399 ± 0.09
AAGGC | 0.146 ± 0.015
AAGGA | 0.431 ± 0.013
AAGGG | 0.331 ± 0.0073
ACTAG | 0.403 ± 0.037
ATAGC | 0.131 ± 0.033
ATAGT | 0.17 ± 0.01
TTGTC | 0.271 ± 0.021
TTGTT | 0.311 ± 0.15
ACAGT | 0.175 ± 0.012
TAAGC | 0.165 ± 0.016
TAAGA | 0.977 ± 0.16
TAAGG | 0.733 ± 0.15
AGTTT | 0.427 ± 0.11
ATGGC | 0.128 ± 0.0069

Variant | ligation selection enrichment
CGTTA | 0.263 ± 0.01
TCCCG | 0.46 ± 0.093
TCCCA | 0.209 ± 0.054
ATGAA | 0.823 ± 0.12
ATGAT | 34.6 ± 8.1
ATGAC | 1.69 ± 0.044
ATCAC | 0.175 ± 0.028
TGGGT | 0.417 ± 0.23
TTGAT | 29.9 ± 7.4
TTGAG | 0.82 ± 0.12
AAGTC | 0.146 ± 0.018
TTGCC | 0.231 ± 0.025
TAGCC | 0.16 ± 0.02
AGGGC | 0.109 ± 0.0024
AGGGG | 0.251 ± 0.027
AGGGT | 0.289 ± 0.097
CCTTC | 0.171 ± 0.02
CGTCG | 2.71 ± 0.46
CGTCA | 0.569 ± 0.038
TGTTG | 1.1 ± 0.08
TGTTA | 0.2185 ± 0.00099

Variant | ligation selection enrichment
TGGAG | 1.119 ± 0.0088
TGGAA | 5.31 ± 0.71
GCGTT | 0.288 ± 0.12
GGACC | 0.232 ± 0.06
GCCGC | 0.205 ± 0.036
CAGGC | 0.244 ± 0.12
CAGGT | 0.108 ± 0.023
CAGGG | 0.186 ± 0.021
TTATA | 0.465 ± 0.12
CGCTG | 0.141 ± 0.026
CGCTC | 0.0791 ± 0.025
TCTCC | 0.267 ± 0.12
CGCAC | 0.339 ± 0.028
CACAA | 0.132 ± 0.055
CCACA | 0.0899 ± 0.017
CCACT | 0.416 ± 0.15
CCACC | 0.0951 ± 0.0078
GCGAT | 21.9 ± 4.1
GCGAG | 1.37 ± 0.06
GCGAC | 1.92 ± 0.12
GACGC | 0.264 ± 0.024

Variant | ligation selection enrichment
GACGA | 1.29 ± 0.2
GACGG | 0.409 ± 0.066
ATAAC | 0.204 ± 0.038
TATCG | 0.999 ± 0.23
TCTTC | 0.0955 ± 0.034
TCTTA | 0.122 ± 0.024
TAATA | 0.189 ± 0.0088
TCCTC | 0.107 ± 0.011
GCTTT | 0.4952 ± 0.0042
AAGAA | 0.428 ± 0.044
AAGAC | 0.661 ± 0.019
AAGAT | 16.6 ± 5
ACTTT | 0.465 ± 0.065
ACTTG | 0.918 ± 0.18
GAATG | 0.478 ± 0.011
GCTGC | 0.1333 ± 0.00076
AACGT | 0.167 ± 0.013
TCCGC | 0.113 ± 0.026
CAAAT | 0.595 ± 0.18
CAAAG | 0.162 ± 0.03
